We go through 30 sequences from the nanobody polyreactivity screen of Harvey et al. (2022).

This data set is described as follows: yeast display, Sf9 membrane polyspecificity reagent, FACS + sequencing; frameworks hold sequencing errors. A digest of the protocol: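 Synthetic nanobody libraries on Saccharomyces cerevisiae BJ5465 were galactose-induced for 36–48 hours, stained 1 hour at 4 °C with 10% biotinylated, detergent-solubilized Sf9 membrane reagent and enriched on streptavidin microbeads. FACS then separated cells into low and high (top ~1%) gates by anti-HA (expression) and streptavidin (reagent binding) fluorescence. Genes were colony-PCR amplified, MiSeq 2 × 250 sequenced and CDR-length filtered. A clone's polyreactivity label is that of its gate of origin.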
“QVQLQESGGGLVQVGGSLRLTCAASGTIFIYGFLGWNRQAPGKERELVASINLGGITNYADSVKGRFTISRDNANNTVYLQMISLKPEDTAVYFCAAYFVTGQNYGSWGQGTQVTVSS”: the “polyreactivity (PSR sort gate)” value is on record as “low polyreactivity”.

Regarding “QVQLVESGGGLVQAGGSLRLSCAASGLTSHSYAMGWYRQAPGKERELVAAINGDGGSTYYADSVKGRFTISRDNAKNTVYLQMNSLKPEDTAVYYCAAQGNRPRGEYDYWGQGTQVTVSS”, the “polyreactivity (PSR sort gate)” value is “high polyreactivity”.

Turning to “QVQLVDSGGGLVQAGGSLRLSCAASGRTFGAYAMGWYRQAPGKERELVATITVSGGSTYYADSVKGRFTISRDNAKNTVYLQMNSLKPEDSAVYYCAAAYDWWQFYSWTIAYDYWGQGTQVTVSS”, the “polyreactivity (PSR sort gate)” value is recorded as “low polyreactivity”.

With “QVQLVESGGGLVQAGGSLRLSCAASGSTFGGNAMGWYRQAPGKERELVAVISKRGGSTYYADSVKGRFTISRDNAKNTVYLQMNSLKPEDTAVYYCAAGYFIRTRSRYRYDYWGQGTQVTVSS”, the “polyreactivity (PSR sort gate)” value is recorded as “high polyreactivity”.

Turning to “QVQLGESGGGLVQAGGSLRLSCADSGFTFASNAMGWYRQAPAKERELVAAISTSGGSTYYADSVKGRFTISRDNAKNTVYLQMNSLKPEDTAVYYFAVAVNGVSRIKYYYWGQGTQVTVSS”, the “polyreactivity (PSR sort gate)” value is recorded as “high polyreactivity”.

For the sequence “QVQLVESGGGLVQAGGSLRLSCAASGRIFLYAMGWYRQAPGKERELVAAINSGGSTNYADSVKGRFTISRDNAKNTVYLQMNSLKPEDTAVYYCAAEVLYWYRYYYWGQGTQVTVSS”, the “polyreactivity (PSR sort gate)” value is “low polyreactivity”.

In the case of “QVQLVESGGGLVQAGGSLRLSCAASGRIFLGNAMGWYRQAPGKERELVAAIDASGGSTYYADSVKGRFTISRDNAKNTVYLQMNSLKPEDTAVYYCNAEPRYYSGGHGYDYWGQGTQVTVSS”, the “polyreactivity (PSR sort gate)” value is recorded as “low polyreactivity”.

For the sequence “QVQLVESGGGLVQAGGSLRLSCAASGLIFGSYAMGWYRQAPGKERELVAAINKSGGSTYYADSVKGRFTISRDNAKNTVYLQMNSLKPEDTAVYYCAKGRSKYYQPGQRDYWGQGTQVTVSS”, the “polyreactivity (PSR sort gate)” value is “high polyreactivity”.

Regarding “QFQLVESGGGLVQAGGSLRLSCAASGRTFKKYAMGWYRQAPGKESELVAAITFSGGSTYYADSVKGRFTISRDNANNTVYLQMNSLKPEDTAVYYCAAKRLGGSYGSDYWGQGTQVTVSS”, the “polyreactivity (PSR sort gate)” value is listed as “high polyreactivity”.

As to “QVQLVESGGGLVQAGGSLRLSCAASGFTFVSYAMGWYRQAPGKERELVAAITSNGGSTYYADSVKGRFTISRDNAKNTVYLQMNSLKPEDTAVYYCAAAGFWHGYFGYGYWGQGTQVTVSS”, the “polyreactivity (PSR sort gate)” value is recorded as “low polyreactivity”.

With “QDQLVESGGGLVQAGGSLRLSCAASGSIFYRNAMGWYIQATGKERELVAAISSDGSTNYADSVKGRFTISRDNAKNTVYLQMNSLKPEDTAVYFCAAPWTQILDYWGQGTQVTVSS”, the “polyreactivity (PSR sort gate)” value is “low polyreactivity”.

On to “QVQLVERGGGLVQAGGSLRLSCAASGRIFYVNTMGCYRQAPGKERELVATISSAASTNYADSVKGRFTISRDHAKNTVYLQMNSLKPEETAVYYCNAALYKEYYYWGQGTQVTVSS”, for which the “polyreactivity (PSR sort gate)” value is “low polyreactivity”.

In the case of “QVQLVESGGALVQAGGSLRLSCAAYGRIFLVYAMGWSRQAPGKEREMVAAISWSTGSTYYADSVKGRFTISRDNAKNTVYLQMNSLKPEDTAVYYCAAEPELDEYEHDYWGQGTQVTVSS”, the “polyreactivity (PSR sort gate)” value is “low polyreactivity”.

Regarding “QVQLQESGGGLVQAGGSLRLSCAASGTISTDSYMGWYRQAPGKERKFVATIGYGGITYYADSVKGRSTISRDSAKNTVYLQMNSLKPEDTAVYYCAVNSYYPDHYWYWGRGTQVTVSS”, the “polyreactivity (PSR sort gate)” value is “high polyreactivity”.

With “QVQLVESGGGLVQAGGSLRLSCAASGSTFLYNTMGWYRQAPGKERELVATITSRGDRTYYADSVKGRFTISRDNAKNTVYLQMNSLNPEDTGVYYCARDYGPYLSPENPAPMDYWGQGTQVTVSS”, the “polyreactivity (PSR sort gate)” value was “low polyreactivity”.

In the case of “QFQLVESGGGLVQAGGSLRLSCAASGRIFVRYAMGWYRQAPGKERELVAGITWSGGSTYYADSVKGRFTISRDNSKNTVYLQMNSLKPEDTAVYYCAAERRFYTSYKSKMESCGQGTQVTVSS”, the “polyreactivity (PSR sort gate)” value is “high polyreactivity”.

On to “QVHLVESGGGLVQAGGSLRLSCAASGRTFGWNVMGWYRQAPGKERELVAAISGSGGSTYYADSVKGRFTISRDNAKNTVYLQMNSLKPEVTAVYYCAALYGPGREYDYWGQGTQVTVSS”, for which the “polyreactivity (PSR sort gate)” value is reported as “low polyreactivity”.

Turning to “QVQLVESGAGLVQAGGSLRLSCAASGFTFKSNAMGWYRQAPGKERELVATISWGGASTSYADSVKGRFTISRDNAKNNVYLQMNSLKPEDTAVYYCKVRAQRRHGGYDHWGLGTQVTVSS”, the “polyreactivity (PSR sort gate)” value is on record as “low polyreactivity”.

Turning to “QVQLVESGGGLVQAGGSLRLSCAASGSIFASYAMGWYRQAPGKERELVAVITRSGGSTYYADSVKGRFTISRDNAKNTVYLQMNSLKPEDTAVYYCAAQYGRTYYSRREYWGQGTQVTVSS”, the “polyreactivity (PSR sort gate)” value was “high polyreactivity”.

“QVQLVESGGGLVKAGGSLRLSCAASGFTYSTYAMGWYRQAPGKEREFVAAISRSGGSTYYADSVKGRFTISRDNAKNTVYLQMNSLKPEDTAVYYCAVRPYRSAGGSVTRGAYYYWGQGTQVTVSS”: the “polyreactivity (PSR sort gate)” value is given as “high polyreactivity”.

As for “QVQLVESGGGLVQAGGSLRLSCAASGSIFAYAMGWYRQAPGKERELVAGISSSGGRTYYADSVKGRFTISRDNAKNTVYLQMISLKPEDTAVYYCAARYPNVYQSETYFYWGQGTQVNVSS”, the “polyreactivity (PSR sort gate)” value is “high polyreactivity”.

On to “QVQLVESGGGLVQAGGSLRLSCAASGSIFAAYTMGWYRQAPGKERELVAAISVSTVSTYYADSVKGRFTISRDNAKNTVYIQMNSLKPEDTAVYYCNADATDSYPEKDEHDSWGQGTQVTVSS”, for which the “polyreactivity (PSR sort gate)” value is on record as “low polyreactivity”.

With “QVQLVESGGGLVQAGGSLRLSCAASGSIFFTYAMGWYRQEPGKERELVAAINSSGGSTYYADSVKGRFTISRDNAKNTVYLQMNSLKPEDTAVYYCAAYRYWSTPRYYWGQGTQVTVSS”, the “polyreactivity (PSR sort gate)” value is “high polyreactivity”.

Turning to “QVQLVESGGGLVQAGGSLRLSCAASGSTFGANAMGWYRQAPGKEREFVAAISRSGVRTYYADSVKGRFTISRDNAKNTVYLKLNSLKPEDTAVYYCAADGYWWTYTRYDYWGQGTQVTVSS”, the “polyreactivity (PSR sort gate)” value is “low polyreactivity”.

For the sequence “QVQLVESGGGLVQAGGSLRLSCAGSGRTFVYYAMGWYRQAPGREREFVAAISRSGGRTSYADSVKGRFTISRDNAKNTVYLHMNSLKPEDTAVNYCAAEKRTQPTSREYYWGQGTQVTVSS”, the “polyreactivity (PSR sort gate)” value was “high polyreactivity”.

With “QVQLVESGGGLVQAGGSLRLSCAASGSIYSRNAMGWYRQAPGKERELVAGISTGGSTNYADSVKGRFTISRDNAKNTVYLQMNSLKPEDTAVYYCAAPLAYEGDYWGQGSQVTVSS”, the “polyreactivity (PSR sort gate)” value is on record as “low polyreactivity”.

In the case of “QVQLVESGGGLVQAGGSLRLSCAASGRIFSRYAMGGYRQAPGKERELVAAIRYSGGRTYYADSVKGRFTISRDNAKNTVYLQMNSLIPEDTEVYYCAADGQWYYAPFRGGDYENDYWGQGTQVTVSS”, the “polyreactivity (PSR sort gate)” value is recorded as “low polyreactivity”.

In the case of “QDQLVESGGGLVQAGGSLRLSCAASGRIFAGYAMGWYRQAPGKERELVASIRSSGSTYYADSVKGRFTISRDNAKNTVYLQMNSLKPEDTAVYYCAARSGYFRSRFDYWGQCTQVTVSS”, the “polyreactivity (PSR sort gate)” value is on record as “high polyreactivity”.

As for “QVQLVESGGGLVQAGGSLRLSCAASGSTFRRYAMGWYRQAPGKEREFVAGITFSGVSTYYADSVKGRFTISRDNAKNTVYLQMNSLKPEDTAVYYCNRRPKYVDNDYWGQGTQVTVSS”, the “polyreactivity (PSR sort gate)” value is given as “high polyreactivity”.

For “QVQLVESGGGLVQAGGSLRISCAASGFIFGKNDMGWYRQATWKERELVAAITIGGSTNYADSVKGRFTFSRDNAKNTVYLQMNSLKPEDTAVYYCNADSYHYGTSLYNYWGQGTQLTVSS”, the “polyreactivity (PSR sort gate)” value is listed as “low polyreactivity”.
